Laboratory results published in US20210261643A1, “INHIBITORS OF P-TEFB MEDIATED TRANSCRIPTION” (The Regents of the University of California, priority 2018, published 2021).

How the values were obtained:
[1] = tested on: HEXIM1, a bona fide target of P-TEFb; test: HEXIM1 mRNA and protein expression in 293T cells; format: cell-based; conditions: increasing amounts of m:HT1
Text: Since P-TEFb is a major transcription factor and regulates the expression of many cellular genes, we next assessed whether HT1 could impair host cell gene expression through inactivation of the kinase activity of CDK9. We first investigated how HT1 impacted the mRNA and protein expression levels of HEXIM1, a bona fide target of P-TEFb.

[2] = tested on: HIV promoter (P-HIV) transactivation by Tat; test: Luc assay with replication-defective HIV-1 molecular clone pNL43ΔenvLuc in 293T cells; format: cell-based; conditions: transient expression
[3] = target: T1, P-TEFb (CycT1) (Homo sapiens, UniProt O60563); test: Co-immunoprecipitation of CycT1 from 293T cell lysates; format: binding
T1 construct: endogenous in cells; host or cells: 293T
Text: We next investigated the mechanisms by which HT1 can prevent HIV gene expression.

[4] = tested on: early steps of HIV infection (HIV-1 NL43ΔenvLuc); test: Single-round infection with Env-pseudotyped replication-defective HIV, proviral DNA by qPCR; format: cell-based; conditions: C-HT, MO-HT, MT-HT cells
Text: FIGS. 5A, 5B, 5C, and 5D. Stable expression of HT1 inhibits HIV replication. FIG. 5A. Stable expression of HT1 inhibits HIV-1 replication in C-HT cells. 1E+06 HT1-expressing CEM-HT cells and e control CEM cells were challenged by HIV-1 NL43 infection. FIG. 5B. Stable expression of HT1 inhibits HIV-1 replication in MO-HT cells. 1E+06 HT1-expressing MOLT4-HT cells, and control MOLT4 cells were challenged by HIV-1 NL43 infection. FIG. 5C. Stable expression of HT1 inhibits HIV-1 replication in MT-HT cells. 1E+06 HT1-expressing MT4-HT cells, and control MT4 cells were challenged by HIV-1 NL43 infection. In each of FIGS. 5A, 5B, and 5C, virus production was assessed by Gag p24 ELISA in supernatants when cells were passaged at days 0, 2 and 4, and plotted. Error bars represent standard deviation from triplicate experiments. FIG. 5D: Stable expression of HT1 doesn't inhibit early steps of HIV-1 infection in C-HT, MO-HT, and MT-HT cells. Single-round infection assays were performed in the same conditions as in FIG. 5A-C above, but using replication-defective HXB2 Env-pseudotyped HIV-1 NL43ΔenvLuc. The relative amount of HIV DNA integrated in the cells' genomic DNA was assessed after 24 h by qPCR. […]
(§1) On 2 dpi, virus production was detected from CEM, MOLT4 and MT4 cells and reached around 20 (CEM, MT4) to 110 (MOLT4) ng/mL p24 concentration in the supernatant on 4 dpi.

[5] = tested on: host cell gene expression in 293T cells; test: mRNA-seq analysis in 293T cells; format: cell-based
Text: The specificity of HT1 was further investigated by mRNA-seq analysis in 293T cells. Only 48 genes were differentially expressed upon ectopic expression of HT1, while knocking out CycT1 as a control impacted 1673 genes.

[6] = tested on: 7SK snRNA; test: Binding to endogenous 7SK snRNA
Text: Finally, since HEXIM1 ARM resembles the TAR-binding domain from Tat, we investigated whether HT1 could bind to HIV TAR. m:HT1 or m:Tat was co-expressed in 293T cells with TAR RNA, expressed under RNA Polymerase III dependent H1 promoter, and immunoprecipitated using anti-Myc Ab or IgG as a control. TAR RNAs co-immunoprecipitated with HT1 or Tat were quantified by RT-qPCR analysis. […] To test whether HT1 affects Tat-TAR interactions, increasing amounts of m:HT1 were also co-expressed with a fixed amount of f:Tat and TAR. […] As expected, HT1 also bound to endogenous 7SK snRNA.

[7] = tested on: HIV-1 NL43; test: Spreading infection with HIV-1 NL43, Gag p24 ELISA in supernatants; format: cell-based; conditions: 4 dpi
Text: FIGS. 5A, 5B, 5C, and 5D. Stable expression of HT1 inhibits HIV replication. FIG. 5A. Stable expression of HT1 inhibits HIV-1 replication in C-HT cells. 1E+06 HT1-expressing CEM-HT cells and e control CEM cells were challenged by HIV-1 NL43 infection. FIG. 5B. Stable expression of HT1 inhibits HIV-1 replication in MO-HT cells. 1E+06 HT1-expressing MOLT4-HT cells, and control MOLT4 cells were challenged by HIV-1 NL43 infection. FIG. 5C. Stable expression of HT1 inhibits HIV-1 replication in MT-HT cells. 1E+06 HT1-expressing MT4-HT cells, and control MT4 cells were challenged by HIV-1 NL43 infection. In each of FIGS. 5A, 5B, and 5C, virus production was assessed by Gag p24 ELISA in supernatants when cells were passaged at days 0, 2 and 4, and plotted. Error bars represent standard deviation from triplicate experiments. FIG. 5D: Stable expression of HT1 doesn't inhibit early steps of HIV-1 infection in C-HT, MO-HT, and MT-HT cells. Single-round infection assays were performed in the same conditions as in FIG. 5A-C above, but using replication-defective HXB2 Env-pseudotyped HIV-1 NL43ΔenvLuc. The relative amount of HIV DNA integrated in the cells' genomic DNA was assessed after 24 h by qPCR. Error bars represent standard deviation from triplicate experiments.
as §1

[8] = tested on: HIV reactivation in 2D10 cells; test: HIV reactivation in 2D10 latent infection model, FACS of GFP positive cells; format: cell-based; conditions: D-HT cells, 24 hrs
Text: FIGS. 4A and 4B. Stable expression of HT1 inhibits HIV reactivation. FIG. 4A: Stable expression of HT1 inhibits HIV reactivation from 2D10 cells. 3f:HT1 was stably expressed in 2D10 cells (D-HT cells). […] Error bars represent standard deviation from triplicate FACS analysis. FIG. 4B: Stable expression of HT1 inhibits HIV reactivation from J-Lat 9.2 cells. 3f:HT1 was stably expressed in J-Lat 9.2 cells (L-HT cells). […] Error bars represent standard deviation from triplicate FACS analysis.
To test the effect of HT1 on HIV-1 in T-lymphocyte derived cells, 3f:HT1 was stably expressed in HIV latent infection models 2D10 and J-Lat 9.2 cells (D-HT and L-HT cells respectively), which carry replication-defective, GFP-flagged HIV proviruses. In both 2D10 and J-Lat 9.2, the basal HIV transcription level is undetectable, as measured through GFP expression. Compounds such as the PKC agonist PMA, the histone deacetylase inhibitor SAHA or the BET bromodomain inhibitor JQ1 reactivate HIV transcription and increase GFP-positive cells detected by FACS analysis. 2D10 cells are more sensitive to HIV reactivation than J-Lat 9.2 cells, though they harbor a mutation in the N-terminal sequence of Tat (H13L). 2D10 and D-HT cells were incubated for 24 hrs with PMA (10 nM), SAHA (5 μM) or JQ1 (1 μM) and GFP positive cells were detected by FACS analysis. PMA, SAHA and JQ1 reactivated HIV from 65%, 71% and 58% less D-HT cells than from control 2D10 cells, respectively. Due to the limited HIV reactivation by SAHA and JQ1 in J-Lat 9.2 cells, we only treated them with PMA (100 nM), which induced a 12% increase in GFP expression.

T1 sequence (O60563 whole entry): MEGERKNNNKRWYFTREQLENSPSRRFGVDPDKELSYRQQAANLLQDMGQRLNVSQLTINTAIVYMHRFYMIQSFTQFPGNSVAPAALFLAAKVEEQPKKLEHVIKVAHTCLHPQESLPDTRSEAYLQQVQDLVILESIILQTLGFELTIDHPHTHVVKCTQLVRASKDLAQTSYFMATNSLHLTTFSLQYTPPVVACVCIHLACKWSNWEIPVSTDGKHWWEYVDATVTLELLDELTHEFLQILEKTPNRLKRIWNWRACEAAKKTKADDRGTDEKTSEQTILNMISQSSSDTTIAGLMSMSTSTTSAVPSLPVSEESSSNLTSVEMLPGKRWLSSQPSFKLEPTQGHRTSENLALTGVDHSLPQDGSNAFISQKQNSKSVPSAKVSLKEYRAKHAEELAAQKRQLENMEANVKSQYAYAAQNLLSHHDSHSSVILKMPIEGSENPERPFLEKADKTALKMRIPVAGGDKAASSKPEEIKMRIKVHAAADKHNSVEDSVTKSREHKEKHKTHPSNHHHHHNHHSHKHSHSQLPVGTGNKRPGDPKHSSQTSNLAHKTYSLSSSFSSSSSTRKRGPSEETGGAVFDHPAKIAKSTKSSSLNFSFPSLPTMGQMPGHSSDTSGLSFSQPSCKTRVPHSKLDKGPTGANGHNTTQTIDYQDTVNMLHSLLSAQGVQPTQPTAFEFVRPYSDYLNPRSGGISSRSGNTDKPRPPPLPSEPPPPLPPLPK
T1 sequence (P50750 whole entry partner): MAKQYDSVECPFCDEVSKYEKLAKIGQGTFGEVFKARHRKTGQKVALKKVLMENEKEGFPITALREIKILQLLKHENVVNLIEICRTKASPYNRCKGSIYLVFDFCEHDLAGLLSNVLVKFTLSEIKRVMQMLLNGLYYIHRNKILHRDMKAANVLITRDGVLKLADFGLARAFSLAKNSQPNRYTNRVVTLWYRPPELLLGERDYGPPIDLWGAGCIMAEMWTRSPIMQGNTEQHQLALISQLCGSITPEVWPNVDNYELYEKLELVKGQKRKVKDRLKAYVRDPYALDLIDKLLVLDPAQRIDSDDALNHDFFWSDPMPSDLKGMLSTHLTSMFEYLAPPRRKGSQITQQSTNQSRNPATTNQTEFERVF

B1: HT1 (protein)
chain: KKKHRRRPSKKKRHWKPYYKLTWEEKKKFDEKQSLRASRIRAEMFAKGQPVAPYNTTQFLMDDHDQEEPDLVDMEPVDPYLEPWKHPGSQPRTACNNCYCKKCCFHCYACFTRKGLGISYG
modifications: left off: small tags and cut ends
B1 was tested, and the “expression level of HEXIM1 protein and mRNA” value [1] was “did not change”, the “decrease in Luc expression” value [2] was 3 fold and the “amounts of CycT1 co-immunoprecipitating with f:Tat” value ([3]; fixed amount of f:Tat, increasing amounts of m:HT1) was “decreased”. For the same molecule, the “binding to CycT1 by co-immunoprecipitation” value ([3]; transient expression in 293T cells, anti-Myc or anti-Flag Abs) was “bound to CycT1”, the “early steps of HIV infection (proviral DNA by qPCR)” value [4] was “not affected” and the “genes differentially expressed upon ectopic expression” value [5] was 48 genes. For the same molecule, the “7SK RNA fold-change” value ([5]; padj=9.6E−06) was 1.1, the “binding to endogenous 7SK snRNA” value [6] was “bound” and the “p24 concentration in supernatant” value ([7]; C-HT cells) was 5.1. The “p24 concentration in supernatant” value ([7]; MO-HT cells) was 12 ng/mL, the “p24 concentration in supernatant” value ([7]; MT-HT cells) was 1.3 ng/mL and the “fewer cells with reactivated HIV (GFP positive) than control 2D10 cells” value (“fewer cells with reactivated HIV” for short) ([8]; JQ1 1 μM) was 58%. The “fewer cells with reactivated HIV” value ([8]; PMA 10 nM) was 65% and the “fewer cells with reactivated HIV” value ([8]; SAHA 5 μM) was 71%.
